Measurements: the DeepSol protein solubility set

Assay: soluble on expression in E. coli; label from the status in PepcDB or PDB records

Row | Sequence | soluble on expression in E. coli
1 | MRRNYSRVIDELRTDYGLNLVAIGQRLGTDPRTVGKWWQGKHNPNQESRKKLNRLYREVKETMMTQVNIFEEANDNTKQVMQVITTTNFHGQPLDIYGDIQEPLFLARAVAEMIDYTKTSQGYYDVQAMLRKVDEDEKLKGMALEGTTKNFRSGQKVWFLTEHGLYEVLMRSNKPKAKEFRKAVKNILKEIRLNGYYMQGELVQELAQPSTQKLPGISDLTYILNKLADLVDMDNLADISNGIDRVQQLVKLISL | not soluble
2 | MKIMCKQEYYNQVVQYAESIKDTSLQNCMERLEAWEKNPDRPCEIELYHDWAPYSFGFTQRYPDGSRGIVGGLLYHGSPDESFAVQLTPFKGWQIHT | not soluble
3 | MTFKPVEICVYGADVICPACVQLPSSKETYEWLEAALRRKYPDQPFVMTYVDIFAPPADDEEKRELAQTIVEEDWVYPVVVIEGNVVAEGNPRLKAICAEMEKFGYRPSAHEGKKAE | not soluble
4 | MLRDTFANTLKDALKARDARRTSTVRLIQAAVKDRDIANRGVGKDPVSDEDIMQILTKMVKQREESATIYEGAGRPELAAQEREEIVIIKEFMPEEIPAEKVRELCQAVISETGASGLRDMGKCMNALKERYPGQIDFAKASGVVKDLLK | not soluble
5 | MNSYPLISVIMSVYKEEREWLVSSIQSILDQTVSDFEFIIILDFPNSELLKTLKDFEKKDSRIIIYQNEKNVGLVESLNTALSFSRGKYIARMDADDISHKNRFEKQLKYITLNNLDLVGGNVNIFHSNKGIYNTTDKVQSDYFLCKLLKIGTIGIVHPTFFSKRNVYDTIGGYYHAECAEDLELLMRANLNGFKIGNIPDVILDCRYSEKSITKENAYFMFCTVKYLKSLYRSSLKSGDYKFNSNYIELYLYDENNKLAFSEKQNLMSEARHSFNEKKYISFLINLIKSILISRTVFFSIKVNVMSFLFRKVEVKIPKVLLACIKIKLQLEHHHHHH | soluble
6 | ELSENFKKLMKYPYRPCTCTRCIEEQRVSAWFDERFNRSMQPLLTAKNAHLEEDTYKWWLRLQREKQPNNLNDTIRELFQVVPGNVDPLLEKRLVSCRRCAVVGNSGNLKESYYGPQIDSHDFVLRMNKAPTEGFEADVGSKTTHHFVYPESFRELAQEVSMILVPFKTTDLEWVISATTTGRISHTYVPVPAKIKVKKEKILIYHPAFIKYVFDRWLQGHGRYPSTGILSVIFSLHICDEVDLYGFGADSKGNWHHYWENNPSAGAFRKTGVHDGDFESNVTTILASINKIRIFKGR | soluble
7 | QSQSNQATPSKVVSGEVNAASFAQFSNAFIDDLWQLSPTWALYSGKHVNDGYLEIPDEAGRVKTLAFVKAQQAKLKQFELKSLTSNETIDYHLIDNLLSSMAWDITRFKSWQWDPSSYNVAGGFAQIINENFAPLDDRLRSVLARMENIPAYYAAARGNISQPTLEHTELAVLQNQGAFSVFSDDLLKQVADSGLSDAEKALFKTRFDIASKAINEHISWLNAQVSQLKKEGARSFRIGEELYEQKFAFDIQAGMTAKQLYQKAMVDKDRVQGEMAKITDKLWPKYFTTPKPSDNKIAIRQLIDKLSTKHVKRDDFVSEVRKQIPELIEFVNQKNIVTLDPKKPLVVRETPEYMRGYAGASISAPGPYDKLGNTYYNVTPLDGMSNESAESYLREYNHWILQILNIHEAIPGHYTQLVYSNESPSLVKSLFGNGAMVEGWAVYTERMMLEEGYGNFEPEMWLMYYKWNLRVICNTILDYSIHVKGMTEEQAIALMMDEAFQQRAEAEGKWRRATLSQVQLTSYYSGYREIYDFREEYKQLKGKDFDLKAFHEKFLSYGSAPVKYIRQLMLE | soluble
8 | MSSTQEASVTDLPVKRPREAEEDNNGGAMETENGGGEIKEPSCMSSIIPGWFSEISPMWPGEAHSLKVEKILFQGKSDYQDVIVFQSATYGKVLVLDGVIQLTERDECAYQEMITHLPLCSISNPKKVLVIGGGDGGVLREVARHSSVEQIDICEIDKMVVDVAKQYFPNVAVGYEDPRVNLIIGDGVAFLKNAAEGTYDAVIVDSSDPIGPAKELFEKPFFESVNRALRPGGVVCTQAESLWLHMDIIEDIVSNCRDIFKGSVNYAWTSVPTYPSGVIGFMLCSSEGPQVDFKKPVSLIDTDESSIKSHCPLKYYNAEIHSAAFCLPSFAKKVIDSKAN | soluble
9 | MQRVTITLDDDLLETLDSLSQRRGYNNRSEAIRDILRSALAQEATQQHGTQGFAVLSYVYEHEKRDLASRIVSTQHHHHDLSVATLHVHINHDDCLEIAVLKGDMGDVQHFADDVIAQRGVRHGHLQCLPKED | soluble
